This assay has as its target human Nectin-4 on Nectin4-CHOK1 cells (CHO-K1 cell strain highly expressing Nectin-4) (human) (UniProt Q96NY8). The assay can be described thus: cell-based or functional assay.

The record followed here is patent US20260199504A1.

Chain of human Nectin-4 on Nectin4-CHOK1 cells (CHO-K1 cell strain highly expressing Nectin-4) (human) (Q96NY8 32-510 limits assumed): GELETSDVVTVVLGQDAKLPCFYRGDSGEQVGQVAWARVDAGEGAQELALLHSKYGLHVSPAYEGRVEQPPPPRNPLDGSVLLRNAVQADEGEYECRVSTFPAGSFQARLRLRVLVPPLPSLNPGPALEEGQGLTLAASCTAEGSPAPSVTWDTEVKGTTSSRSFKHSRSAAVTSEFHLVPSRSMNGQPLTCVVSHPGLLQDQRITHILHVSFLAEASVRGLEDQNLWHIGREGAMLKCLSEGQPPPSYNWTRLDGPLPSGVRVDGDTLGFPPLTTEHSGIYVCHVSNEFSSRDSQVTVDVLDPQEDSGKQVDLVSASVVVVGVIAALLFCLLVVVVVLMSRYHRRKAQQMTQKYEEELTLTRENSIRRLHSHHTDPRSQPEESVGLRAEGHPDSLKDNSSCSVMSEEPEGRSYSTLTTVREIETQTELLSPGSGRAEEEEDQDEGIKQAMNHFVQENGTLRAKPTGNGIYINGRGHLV

As to “C25-IgG1 (IgG1 isotype negative control) (antibody)”, the FITC-A signal value, 5 nM Ab + 15 nM pHrodo (pHrodo endocytosis assay, Nectin4-CHOK1 clone 3) was determined as 129 and the FITC-A signal value, 20 nM Ab + 60 nM pHrodo (pHrodo endocytosis assay, Nectin4-CHOK1 clone 3) came to 154.
